Experiments:
[1] = biological target: Torpedo 39MIR peptide-intein-chitin-binding domain (IChBD) fusion protein (Torpedo); assay: Western blot of peptide-IChBD fusion (FIG. 7)
[2] = biological target: K10N/Q111D human 39MIR double mutant, IChBD fusion (human); assay: Western blot of peptide-IChBD fusion (FIG. 7)
[3] = biological target: K10N/V75I/Q111D human 39MIR triple mutant, IChBD fusion (human); assay: Western blot of peptide-IChBD fusion (FIG. 7)
[4] = biological target: K10N/V75I human 39MIR double mutant, IChBD fusion (human); assay: Western blot of peptide-IChBD fusion (FIG. 7)
[5] = biological target: K10N/D70A human 39MIR double mutant, IChBD fusion (human); assay: Western blot of peptide-IChBD fusion (FIG. 7)
[6] = biological target: K10N/D70A/V75I/Q111D human 39MIR quadruple mutant, IChBD fusion (human); assay: Western blot of peptide-IChBD fusion (FIG. 7)
[7] = biological target: V75I/Q111D human 39MIR double mutant, IChBD fusion (human); assay: Western blot of peptide-IChBD fusion (FIG. 7)
[8] = biological target: Torpedo 39MIR peptide-intein-chitin-binding domain (IChBD) fusion protein (Torpedo); assay: Western blot of peptide-IChBD fusion (FIG. 5)
[9] = biological target: Torpedo 39MIR single mutant N10K, IChBD fusion (Torpedo); assay: Western blot of peptide-IChBD fusion (FIG. 5)
[10] = biological target: Torpedo 39MIR single mutant R66K, IChBD fusion (Torpedo); assay: Western blot of peptide-IChBD fusion (FIG. 5)
[11] = biological target: Torpedo 39MIR single mutant A70D, IChBD fusion (Torpedo); assay: Western blot of peptide-IChBD fusion (FIG. 5)
[12] = biological target: Torpedo 39MIR single mutant R79H, IChBD fusion (Torpedo); assay: Western blot of peptide-IChBD fusion (FIG. 5)
[13] = biological target: Torpedo 39MIR single mutant L12F, IChBD fusion (Torpedo); assay: Western blot of peptide-IChBD fusion (FIG. 5)
[14] = biological target: Torpedo 39MIR peptide-intein-chitin-binding domain (IChBD) fusion protein (Torpedo); assay: Western blot of peptide-IChBD fusion (Table 3)
[15] = biological target: Q111D human 39MIR mutant, IChBD fusion (human); assay: Western blot of peptide-IChBD fusion (Table 3)
[16] = biological target: V75I human 39MIR mutant, IChBD fusion (human); assay: Western blot of peptide-IChBD fusion (Table 3)
[17] = biological target: K10N human 39MIR mutant, IChBD fusion (human); assay: Western blot of peptide-IChBD fusion (Table 3)
[18] = biological target: Torpedo 39MIR single mutant K115H, IChBD fusion (Torpedo); assay: Western blot of peptide-IChBD fusion (FIG. 5)
[19] = biological target: Torpedo 39MIR single mutant D111Q, IChBD fusion (Torpedo); assay: Western blot of peptide-IChBD fusion (FIG. 5)
[20] = biological target: Torpedo 39MIR single mutant I75V, IChBD fusion (Torpedo); assay: Western blot of peptide-IChBD fusion (FIG. 5)
[21] = biological target: K10N/V75I/Q111D human 39MIR triple mutant, IChBD fusion (human); assay: Western blot (FIG. 7)
[22] = biological target: K10N/D70A/V75I/Q111D human 39MIR quadruple mutant, IChBD fusion (human); assay: Western blot (FIG. 7)
[23] = biological target: Human 39MIR peptide-intein-chitin-binding domain (IChBD) fusion protein (human); assay: Western blot of peptide-IChBD fusion (FIG. 7)
[24] = biological target: D70A human 39MIR mutant, IChBD fusion (human); assay: Western blot of peptide-IChBD fusion (Table 3)
[25] = biological target: Human 39MIR peptide-intein-chitin-binding domain (IChBD) fusion protein (human); assay: Western blot of peptide-IChBD fusion (Table 3)
[26] = biological target: Q111D human 39MIR mutant, IChBD fusion (human); assay: Western blot
[27] = biological target: V75I human 39MIR mutant, IChBD fusion (human); assay: Western blot
[28] = biological target: K10N human 39MIR mutant, IChBD fusion (human); assay: Western blot
[29] = biological target: Torpedo 39MIR peptide-intein-chitin-binding domain (IChBD) fusion protein (Torpedo); assay: Western blot (FIG. 3)

Sequence of Torpedo 39MIR single mutant L12F, IChBD fusion (Torpedo) (chain, as listed by the source L12F L12F): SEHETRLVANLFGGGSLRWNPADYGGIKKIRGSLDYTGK
Sequence of V75I/Q111D human 39MIR double mutant, IChBD fusion (human) (chain, as listed by the source V75I Q111D V75I Q111D): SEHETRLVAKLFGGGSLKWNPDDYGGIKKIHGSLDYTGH
Sequence of K10N/V75I/Q111D human 39MIR triple mutant, IChBD fusion (human) (chain, as listed by the source K10N V75I Q111D K10N V75I Q111D): as the sequence (chain, as listed by the source V75I Q111D V75I Q111D) above, with K10N counted along it
Sequence of K10N/D70A human 39MIR double mutant, IChBD fusion (human) (chain, as listed by the source K10N D70A K10N D70A): as the sequence (chain, as listed by the source V75I Q111D V75I Q111D) above, with K10N, D22A, I27V, D35Q counted along it
Sequence of V75I human 39MIR mutant, IChBD fusion (human) (chain, as listed by the source V75I V75I): as the sequence (chain, as listed by the source V75I Q111D V75I Q111D) above, with D35Q counted along it
Sequence of Torpedo 39MIR single mutant R79H, IChBD fusion (Torpedo) (chain, as listed by the source R79H R79H): as the sequence (chain, as listed by the source L12F L12F) above, with F12L, R31H counted along it
Sequence of K10N/V75I human 39MIR double mutant, IChBD fusion (human) (chain, as listed by the source K10N V75I K10N V75I): as the sequence (chain, as listed by the source V75I Q111D V75I Q111D) above, with K10N, D35Q counted along it
Sequence of Torpedo 39MIR single mutant R66K, IChBD fusion (Torpedo) (chain, as listed by the source R66K R66K): as the sequence (chain, as listed by the source L12F L12F) above, with F12L, R18K counted along it
Sequence of K10N/Q111D human 39MIR double mutant, IChBD fusion (human) (chain, as listed by the source K10N Q111D K10N Q111D): as the sequence (chain, as listed by the source V75I Q111D V75I Q111D) above, with K10N, I27V counted along it
Sequence of Torpedo 39MIR single mutant N10K, IChBD fusion (Torpedo) (chain, as listed by the source N10K N10K): as the sequence (chain, as listed by the source L12F L12F) above, with N10K, F12L counted along it
Sequence of Torpedo 39MIR peptide-intein-chitin-binding domain (IChBD) fusion protein (Torpedo) (chain, as listed by the source): as the sequence (chain, as listed by the source L12F L12F) above, with F12L counted along it
Sequence of K10N human 39MIR mutant, IChBD fusion (human) (chain, as listed by the source K10N K10N): as the sequence (chain, as listed by the source V75I Q111D V75I Q111D) above, with K10N, I27V, D35Q counted along it
Sequence of Q111D human 39MIR mutant, IChBD fusion (human) (chain, as listed by the source Q111D Q111D): as the sequence (chain, as listed by the source V75I Q111D V75I Q111D) above, with I27V counted along it
Sequence of K10N/D70A/V75I/Q111D human 39MIR quadruple mutant, IChBD fusion (human) (chain, as listed by the source K10N D70A V75I Q111D K10N D70A V75I Q111D): as the sequence (chain, as listed by the source V75I Q111D V75I Q111D) above, with K10N, D22A counted along it
Sequence of Torpedo 39MIR single mutant A70D, IChBD fusion (Torpedo) (chain, as listed by the source A70D A70D): as the sequence (chain, as listed by the source L12F L12F) above, with F12L, A22D counted along it
Sequence of Torpedo 39MIR single mutant D111Q, IChBD fusion (Torpedo) (chain, as listed by the source D111Q D111Q): as the sequence (chain, as listed by the source L12F L12F) above, with F12L, D35Q counted along it
Sequence of Torpedo 39MIR single mutant K115H, IChBD fusion (Torpedo) (chain, as listed by the source K115H K115H): as the sequence (chain, as listed by the source L12F L12F) above, with F12L, K39H counted along it
Sequence of Human 39MIR peptide-intein-chitin-binding domain (IChBD) fusion protein (human) (chain, as listed by the source): as the sequence (chain, as listed by the source V75I Q111D V75I Q111D) above, with I27V, D35Q counted along it
Sequence of Torpedo 39MIR single mutant I75V, IChBD fusion (Torpedo) (chain, as listed by the source I75V I75V): as the sequence (chain, as listed by the source L12F L12F) above, with F12L, I27V counted along it
Sequence of D70A human 39MIR mutant, IChBD fusion (human) (chain, as listed by the source D70A D70A): as the sequence (chain, as listed by the source V75I Q111D V75I Q111D) above, with D22A, I27V, D35Q counted along it

fold-change in binding relative to Torpedo 39MIR [1]	fold-change in binding relative to Torpedo 39MIR [2]	fold-change in binding relative to Torpedo 39MIR [3]	fold-change in binding relative to Torpedo 39MIR [4]	fold-change in binding relative to Torpedo 39MIR [5]	fold-change in binding relative to Torpedo 39MIR [6]	fold-change in binding relative to Torpedo 39MIR [7]	fold-change in binding relative to Torpedo 39MIR [8]	fold-change in binding relative to Torpedo 39MIR [9]	fold-change in binding relative to Torpedo 39MIR [10]	fold-change in binding relative to Torpedo 39MIR [11]	fold-change in binding relative to Torpedo 39MIR [12]	fold-change in binding relative to Torpedo 39MIR [13]	fold-change in binding relative to Torpedo 39MIR [14]	fold-change in binding relative to Torpedo 39MIR [15]	fold-change in binding relative to Torpedo 39MIR [16]	fold-change in binding relative to Torpedo 39MIR [17]	fold-change in binding relative to Torpedo 39MIR [18]	fold-change in binding relative to Torpedo 39MIR [19]	fold-change in binding relative to Torpedo 39MIR [20]	Substance	other results
1 fold	2.31 fold	2.97 fold	1.1 fold	0.31 fold	1.7 fold	0.92 fold	1 fold	0.29 fold	0.62 fold	0.93 fold	1.91 fold	1.42 fold	1 fold	0.06 fold	0.03 fold	0.01 fold				mAb 35 (antibody)	
1 fold	1.07 fold	2.46 fold	1.25 fold	0.16 fold	0.99 fold	3.34 fold	1 fold	0.03 fold	1.55 fold	0.2 fold	1.65 fold	1.1 fold	1 fold				0.4 fold	0.07 fold	0.06 fold	mAb 132A (antibody)	
1 fold	1.19 fold	2.52 fold	1.79 fold	0.72 fold	0.99 fold	2.71 fold	1 fold	0.82 fold	1.03 fold	1.08 fold	0.97 fold	0.9 fold	1 fold	0.59 fold	0.65 fold	0.23 fold	1.07 fold	0.16 fold	0.16 fold	mAb 198 (antibody)	fold improvement in binding compared to the human 39MIR [21]: 28 fold; fold improvement in binding compared to the human 39MIR [22]: 11 fold; fold-change in binding relative to Torpedo 39MIR [23]: 0.09 fold; fold-change in binding relative to Torpedo 39MIR [24]: 0.02 fold; fold-change in binding relative to Torpedo 39MIR [25]: 0.02 fold; fold improvement in binding compared to the human 39MIR [26]: 35.7 fold; fold improvement in binding compared to the human 39MIR [27]: 40 fold; fold improvement in binding compared to the human 39MIR [28]: 13 fold; fold stronger binding than to the human MIR mimic [29]: 50 fold

— US20200033338A1
